# According to US20240390520A1, “GENE EDITING OF PCSK9 OR ANGPTL3 AND COMPOSITIONS AND METHODS OF USING SAME FOR TREATMENT OF DISEASE” (Verve Therapeutics, Inc., priority 2021, published 2024):
# B1: GA690: ANGPTL3 sgRDNA spacer sequence variant with minimally modified tracrRNA (nucleic acid)
# guide: AAGATACCTGAATAACCCTCGTTTTAGAGCTAGAAATAGCAAGTTAAAATAAGGCTAGTCCGTTATCAACTTGAAAAAGTGGCACCGAGTCGGTGCTTTT
# modifications: DNA-containing spacer with minimally modified tracrRNA, spacer pattern not given here
# Test system: OT1 site
# Assay: Off-target OT1 editing, MessengerMax transfection in PHH, Targeted Amplicon sequencing
# Type: cell-based, human
# Settings: PHH lot STL, MessengerMax with mRNA MA079, 5,000 and 2,500 ng/mL total RNA
# Protocol: The genomic DNA from PHH cells transfected with one of 20 sgRDNA spacer sequence variants were also tested for off-target editing percentage by targeted amplicon sequencing (FIGS. 31-32). The genomic DNA samples assessed were from cells that received doses of the total RNA of 5,000 ng/mL and 2,500 ng/mL. OT1 primer (GA0100_OT_B2) was used to measure editing percentage (A>G) in position 1-10 of the OT1 site (Table. 4). Technical replicates were performed.
# Table. […] VEP Gene and VEP Consequence refer to the genomic location and functional role of OT1 as determined by the Ensembl Variant Effect Predictor (VEP) tool v98.3. […] The CADD score was determined using the Combined Annotation-Dependent Depletion v1.6 (CADD) framework, which aims to annotate and interpret human genetic variation through the integration of diverse annotations into a single measure. […] To bioinformatically assess the potential for oncogenesis due to editing at the off-target site, it was assessed whether OT1 is located within a gene in the Cancer Gene Census of the Catalogue of Somatic Mutations in Cancer (COSMIC) v92; it is not. […]
molecule,measurement,value
B1,"off-target editing (A>G) at OT1, positions 1-10",indeed edited at OT1
